{"source": "paper PMC6008586", "about": "“Analysis of transition state mimicry by tight binding aminothiazoline inhibitors provides insight into catalysis by human O-GlcNAcase” (Chemical Science, 2016)", "origin": "cited, not measured here", "target": "Asp174 (UniProt position 174, FALLFDDIDHN)", "experiment": "kinetics", "details": "the article refers the ionisation state to the resting enzyme; free-enzyme versus enzyme-substrate complex is not specified", "data": [{"substance": "O-GlcNAcase (OGA, protein O-GlcNAc hydrolase, GH84) (Homo sapiens)", "values": [{"measurement": "pKa", "value": 5.2}]}]}
